Experimental data taken from the supplement of paper PMC11780869.

Tested on: Bacillus subtilis
Test: cleaved RNA product abundance (RNA/gDNA barcode ratio) relative to median wild-type variant (ratio to wild type); higher = more accumulation of the downstream cleavage product
Outline: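 Sequencing of barcodes from gel-selected, reverse-transcribed cleaved RNA and from genomic DNA, with UMI collapsing, yielded a per-construct RNA:gDNA ratio. Scaled to the median construct with the unmutated site, this ratio is the cleaved product abundance. The barcoded reporters (truncated aprE or tetM mRNAs with mutagenized RNase Y cleavage-site windows) were integrated into the B. subtilis chromosome, and cultures grew in LB at 37°C from OD600 0.0003 to 0.3.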

[1] = experiment (reporter, strain, medium): exp 8a: truncated aprE reporter, strain BJT201 with 2% xylose (RNase J1 expressed), cleavage site: glnRA (positions -5 to +31 mutated)
[2] = experiment (reporter, strain, medium): exp 2b: truncated aprE reporter, strain BJT200, cleavage site: cggR-gapA (positions -7 to +36 mutated)
[3] = experiment (reporter, strain, medium): exp 4a: truncated aprE reporter, strain BJT201 with 2% xylose (RNase J1 expressed), cleavage site: cggR-gapA (positions -7 to +36 mutated)
[4] = experiment (reporter, strain, medium): exp 6: tetM reporter, strain 168, cleavage site: cggR-gapA (positions -7 to +36 mutated)

Row | Sequence | cleaved RNA product abundance [1] | cleaved RNA product abundance [3] | also measured
1 | CGACATGTCCCGCTTCTTTCATTAATACGTTAGCAACTGTTTTGCTATATAGATTTACCTTTTAAGAGGAGGAAT | 0.956 | – | –
2 | CGACATGTCCCGCTTCTTTCATTAATCCGTTAGCATCTGTTTTGCTATATACATTTACCTTTTAAGAGGAGGAAT | 0.769 | – | –
3 | ACAGACGAAGGAGCCGCAAAGAAGTTATTAAGGGATGAATAATCTCACAATATAAATATCTCTCACTTATTTAAA | – | 0.262 | cleaved RNA product abundance [2]: 0.18
4 | ACAGACGAAGGAGCCGCAAAGAAGTTCTTAAGGGATGAATAATCCCTCAATATAAATATCTCTCACTTATTTAAA | – | 0.254 | cleaved RNA product abundance [2]: 0.168; cleaved RNA product abundance [4]: 0.299
5 | CGACATGTCCCGCTTCTTTCATTATTCCGTTAGCAACTGTTTTGCTATATAAATTTACCTTTTAAGAGGAGGAAT | 0.753 | – | –
6 | ACAGACGAAGGAGCCGCTAAGAAGTTATTAAGGGATGAATAATACCTCAATATAAATATCTCTCACTTATTTAAA | – | 0.15 | –
7 | CGACATGTCCCGCTTCTTTCATTAATCCGTTACCAACTGTTTTGCTATATACATTTACCGTTTAAGAGGAGGAAT | 0.173 | – | –
8 | ACAGACGAAGGAGCCGCAAAGAAGTTATTAAGGGATGAATAATACCTCAATATAAATTTCTCTCACTTATTTAAA | – | 0.15 | –
9 | ACAGACGAAGGAGCCGCAAAGAATTTATTCAGGGATGAATAATCCCTCAATATAAATATCTCTCACTTATTTAAA | – | 0.549 | cleaved RNA product abundance [2]: 0.624
10 | ACAGACGAAGGAGCCGCAAAGAAGTTATTAAGCGATGAATAATCCCTCAATATAAATATCTCTCACTTATTTAAA | – | 0.116 | cleaved RNA product abundance [2]: 0.0916; cleaved RNA product abundance [4]: 0.132
11 | ACAGACGAAGGAGCCGCAAAGAAGTCATTAAGTGATGAATAATCCCTCAATATAAATATCTCTCACTTATTTAAA | – | 0.0976 | –
12 | ACAGACGAAGGAGCCGCAAAGAAGTTATTAAGGGACGAATAATCCCTCAAAATAAATATCTCTCACTTATTTAAA | – | 0.346 | –
13 | CGACATGTCCCGCTTCTTTCATTAATCCGTTAGTAACTGTTTTACTATATACATTTACCTTTTAAGAGGAGGAAT | 1.04 | – | –
14 | ACAGACGAAGGAGCCGCAAAGAAGTTATGAAGGAATGAATAATCCCTCAATATAAATATCTCTCACTTATTTAAA | – | 0.0818 | cleaved RNA product abundance [2]: 0.139
15 | ACAGACGAAGGAGCCGCAAAGAAGTTGTAAAGGGATGAATAATCCCTCAATATAAATATCTCTCACTTATTTAAA | – | – | cleaved RNA product abundance [2]: 0.272
16 | CGACATGTCCCGCTTCTTTCATTATTCCGTTATCAACTGTTTTGATATATACATTTACCTTTTAAGAGGAGGAAT | 0.385 | – | –
17 | ACAGACGAAGGAGCCGCAAAGAAGTTATTAAGGGATGAATAATCCCTCAATTTAAATATCTCTCACTTATTTAAA | – | 0.218 | cleaved RNA product abundance [2]: 0.182; cleaved RNA product abundance [4]: 0.195
18 | ACAGACGAAGGAGCCGCTAAGAAGTTATTAAGGGATGAATAATCCCTCAATATAAATATCTCTCACTTATTTAAA | – | 0.985 | cleaved RNA product abundance [2]: 1.04; cleaved RNA product abundance [4]: 1.03
19 | ACAGACGAAGGAGCCGCAATGAAGTTATTAAGGGATGAATAATCCCTCAATATGAATATCTCTCACTTATTTAAA | – | 0.141 | –
20 | CGACATGTCCCGCTTCTTTCATTAATCCGTTAACAACTGTTTGGCTATATACATTTACCTTTTAAGAGGAGGAAT | 0.159 | – | –

Row | Sequence | cleaved RNA product abundance [1] | cleaved RNA product abundance [3] | also measured
21 | ACAGACGAAGGAGCCGCAAAGAAGTTATTAAGTGATGAATAATCCCTCTATATAAATATCTCTCACTTATTTAAA | – | 0.128 | cleaved RNA product abundance [2]: 0.109
22 | ACAGACGAAGGAGCCGCAAAGAAGTTATTAATGCATGAATAATCCCTCAATATAAATATCTCTCACTTATTTAAA | – | 0.0823 | cleaved RNA product abundance [2]: 0.0867
23 | CGACATGTCCCGCTTCTTTCATTAATCCGTTATCAACTGTTTTGCTTTATACATTTACCTTTTAAGAGGAGGAAT | 0.202 | – | –
24 | ACAGACGAAGGAGCCGCAAAGAAGTTATTAAGGGATGAATAATACCTCTATATAAATATCTCTCACTTATTTAAA | – | 0.156 | –
25 | CGACATGTCCCGCTTCTTTCATTAATCCTTTAGTAACTGTTTTGCTATATACATTTACCTTTTAAGAGGAGGAAT | 0.378 | – | –
26 | ACAGACGAAGGAGCCGCAAAGAAGTAATTAAGGGATGAATAATCCCTCAATATAACTATCTCTCACTTATTTAAA | – | 0.215 | –
27 | CGACATGTCCCGCTTCTTTCATTAATCCGTTACCAACTGTTTTGATATATACATTTACCTTTTAAGAGGAGGAAT | 0.276 | – | –
28 | CGACATGTCCCGCTTCTTTCATTAATCCGTTAGCAACTGTTTGGCTATATAAATTTACCTTTTAAGAGGAGGAAT | 0.518 | – | –
29 | ACAGACGAAGGAGCCGCAAAGAAGTTATTAATGGATGAATAATCCCTTAATATAAATATCTCTCACTTATTTAAA | – | 0.625 | cleaved RNA product abundance [2]: 0.806
30 | ACAGACGAAGGAGCCGCAAAGAAGTTATTAAGGGATAAATAATCCCTCAATATAAAGATCTCTCACTTATTTAAA | – | 0.505 | cleaved RNA product abundance [2]: 0.482
31 | ACAGACGAAGGAGCCGCAAAGAAGATATTAAGGGTTGAATAATCCCTCAATATAAATATCTCTCACTTATTTAAA | – | – | cleaved RNA product abundance [2]: 0.43
32 | CGACATGTCCCGCTTCTTTCATTAATCCGTTAGCAACGGTTTTGCTATATACATTTACCTTTTAAGAGGAGGAAT | 0.387 | – | –
33 | ACAGACGAAGGAGCCGCAAAGAAGTTATTAAGGGATTAATAATCCCTCAATATATATATCTCTCACTTATTTAAA | – | 0.957 | –
34 | ACAGACGAAGGAGCCGCAAAGAAGATATTAAGGGATGAATAATCCCCCAATATAAATATCTCTCACTTATTTAAA | – | 0.32 | –
35 | CGACATGTCCCGCTTCTTTCATTAATCCGTTAGTAACTGTTTTGCTATATACATTTACATTTTAAGAGGAGGAAT | 0.433 | – | –
36 | ACAGACGAAGGAGCCGCAAAGAAGTTATTAAGGGATGTATAATCCCTCCATATAAATATCTCTCACTTATTTAAA | – | – | cleaved RNA product abundance [2]: 0.162
37 | CGACATGTCCCGCTTCTTTCATTAATCCGTCAGCAACTGTTTTGCTATATACATTTACCATTTAAGAGGAGGAAT | 0.704 | – | –
38 | ACAGACGAAGGAGCCGCAACGAAGTTATTAAGGGATGAATAATCCCTCACTATAAATATCTCTCACTTATTTAAA | – | 0.435 | –
39 | CGACATGTCCCGCTTCTTTCATTAATCCGTTAGCAAATGTTTTGCTACATACATTTACCTTTTAAGAGGAGGAAT | 0.354 | – | –
40 | ACAGACGAAGGAGCCGCAAAGAAGTTATTAAGGGATGAATATTCCCACAATATAAATATCTCTCACTTATTTAAA | – | 0.178 | cleaved RNA product abundance [2]: 0.177

Row | Sequence | cleaved RNA product abundance [1] | cleaved RNA product abundance [3] | also measured
41 | CGACATGTCCCGCTTCTTTCATTAATCCGTTATCAATTGTTTTGCTATATACATTTACCTTTTAAGAGGAGGAAT | 0.199 | – | –
42 | ACAGACGAAGGAGCCGCAAAGAAGTTATTATGGGGTGAATAATCCCTCAATATAAATATCTCTCACTTATTTAAA | – | 0.285 | –
43 | CGACATGTCCCGCTTCTTTCATTAATCCGTTAGCAACTGTTTTGATATAAACATTTACCTTTTAAGAGGAGGAAT | 0.399 | – | –
44 | ACAGACGAAGGAGCCGCAAAGAAGTTATTAAGGTATGAATAATCCCTCAATCTAAATATCTCTCACTTATTTAAA | – | 0.0855 | –
45 | ACAGACGAAGGAGCCGCAAAGAAGTTATTAAGGGATGAATAATCGCTCAATATAAATATCTCTCACTTATTTAAA | – | 0.12 | cleaved RNA product abundance [2]: 0.101; cleaved RNA product abundance [4]: 0.0971
46 | CGACATGTCCCGCTTCTTTCATTAATCTGTTAGCAACTGTTTTGATATATACATTTACCTTTTAAGAGGAGGAAT | 0.562 | – | –
47 | CGACATGTCCCGCTTCTTTCATTACTCCGTTAGCAACTGTTTAGCTATATACATTTACCTTTTAAGAGGAGGAAT | 0.694 | – | –
48 | ACAGACGAAGGAGCCGCAAAGAAGTTATTAAGGGATGATTAATCCCTTAATATAAATATCTCTCACTTATTTAAA | – | 0.554 | –
49 | ACAGACGAAGGAGCCGCAAAGAAGTTATTAAGGAATGAATAATCCGTCAATATAAATATCTCTCACTTATTTAAA | – | 0.0653 | cleaved RNA product abundance [2]: 0.0733
50 | CGACATGTCCCGCTTCTTTCATTAATCCTTTAGCAACTGTTTTGCTATATACAGTTACCTTTTAAGAGGAGGAAT | 0.604 | – | –
51 | ACAGACGAAGGAGCCGCAAAGAAGTTATTAATAGATTAATAATCCCTCAATATAAATATCTCTCACTTATTTAAA | – | 0.135 | –
52 | ACAGACGAAGGAGCCGCAAATAAGTTATTAAGGGGTGAATAATCCCTCAATATAAATATCTCTCACTTATTTAAA | – | 0.273 | –
53 | CGACATGTCCCGCTTCTTTCATTAACCCGTTAGCAACTGTTTTGCTATATACATTTACTTTTTAAGAGGAGGAAT | 1.04 | – | –
54 | CGACATGTCCCGCTTCTTTCATTACTACCTTAGCAACTGTTTTGCTATATACATTTACCTTTTAAGAGGAGGAAT | 0.4 | – | –
55 | ACAGACGAAGGAGCCGCAAAGAAGTCATTAAGGGATGAATAATCGCTCAATATAAATATCTCTCACTTATTTAAA | – | 0.107 | –
56 | ACAGACGAAGGAGCCGCAAAGAAGTTATTAAGGGATGAAAAATCCCCCAATATAAATATCTCTCACTTATTTAAA | – | 0.184 | –
57 | CGACATGTCCCGCTTCTTTCATTAATCCGTTAGAAACTGTTTTGCTATATACATTTATCTTTTAAGAGGAGGAAT | 0.384 | – | –
58 | ACAGACGAAGGAGCCGCAAAGTAGTTATTAAGGGATGAATAGTCCCTCAATATAAATATCTCTCACTTATTTAAA | – | 0.883 | –
59 | ACAGACGAAGGAGCCGCAAAGAAGTTATTAAGGGATGTATATTCCCTCAATATAAATATCTCTCACTTATTTAAA | – | 0.88 | –
60 | ACAGACGAAGGAGCCGCAAAGAATTTATTAAGGGATGAATAATCTCTCAATATAAATATCTCTCACTTATTTAAA | – | 0.844 | –
